Reference: the supplement of paper PMC10724198
± gives the standard deviation of the averaged measurements.

What follows are sequences tested on Saccharomyces cerevisiae (assay: protein stability index of tFT-peptide fusion (C-terminal peptide) (PSI (0-1 scale)); higher = more stable (slower turnover)). Settings: genetic background: wild type; temperature: 30 C.
Experimental: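 Multiplexed protein stability (MPS) profiling in S. cerevisiae. Random 12-aa peptides (tFT-X12 library) are fused to the C-terminus of a sfGFP-mCherry tandem fluorescent timer, after mCherry and a GGGS linker. Cells are FACS-sorted into 8 mCherry/sfGFP bins and deep-sequenced. The protein stability index (PSI) is the read-weighted bin average, scaled from 0 (unstable) to 1 (stable). Only peptides with >10 reads are reported; cells were grown at 30 °C in SC-His with glucose.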
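Also: PSI is a weighted mean of sequencing reads over stability bins, variants kept only with over 10 reads, mCherry proximal and sfGFP distal, peptide attached via GGGS linker.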

Sequence	protein stability index
HVLRMFTGFLFC	0.624 ± 0.044
WQIRREMFECGL	0.677 ± 0.025
PSAPPPSPLGRT	0.738 ± 0.059
VGVGDGLIRRSS	0.7338 ± 0.004
GGCAGGVGRLAV	0.692 ± 0.011
KNKKNKKKTPTT	0.727 ± 0.013
PERAPASRWTLS	0.7362 ± 0.0049
PGLSLPLPPPRP	0.703 ± 0.035
LSVSRLGFLLRG	0.684 ± 0.037
RCGCLRVPTGGG	0.679 ± 0.075
VFATRALSQRLI	0.526 ± 0.011
PSPLPSPLLTTL	0.6816 ± 0.0062
WRVMCLQRCSGV	0.541 ± 0.011
GGGGRGGVVRSG	0.634 ± 0.095
FAPVPPRATFSH	0.691 ± 0.022
PIPPHGTPPAAY	0.694 ± 0.036
RVCYVYIGVTMH	0.634 ± 0.19
GGCVGVLGGWGV	0.695 ± 0.012
PHPAPPPSPSPS	0.715 ± 0.033
PPPTRAPPPKPG	0.621 ± 0.028
CNDAYKSKLARL	0.696 ± 0.034
LSGWVLVGNWGN	0.647 ± 0.036
RLGRATLLLLFF	0.572 ± 0.12
LPPPPPAFLDSF	0.691 ± 0.065
PLQFSLADEFST	0.705 ± 0.02

Sequence	protein stability index
EKCIGKRGLTKY	0.703 ± 0.022
ERYLCVGIAHGP	0.706 ± 0.02
VHRFPPAPFCTP	0.734 ± 0.047
NQHNARTRWLCP	0.645 ± 0.017
KSAGNWSKGKRE	0.713 ± 0.083
LEYRSCDFIDRS	0.625 ± 0.057
SPLSLSFLLLCL	0.524 ± 0.028
LPNLGWTNSSIE	0.667 ± 0.066
KEEKRMKLKKLQ	0.537 ± 0.082
PPPYAPLPPTWP	0.726 ± 0.023
LSPPLAPPPALP	0.701 ± 0.08
DLPRCTLSVEDT	0.703 ± 0.0078
FRQQGGERVRWG	0.66 ± 0.0088
ETCIWDGRPIAS	0.723 ± 0.085
ARKDVTRKSSND	0.665 ± 0.064
SPAGQRPQVPVS	0.667 ± 0.075
MGRQSCCHKTSG	0.643 ± 0.042
PTLDATLSVASG	0.667 ± 0.036
VFDIQLLDGGGP	0.685 ± 0.025
TPAPLLPRRTPP	0.734 ± 0.073
PPLPPLPSPSPP	0.721 ± 0.092
DTRNKHTKSKCQ	0.741 ± 0.051
PSLHPNHLAPPP	0.622 ± 0.046
PLPPRSPPRRPS	0.634 ± 0.079
PAPPLPPPAAPP	0.576 ± 0.0069

Sequence	protein stability index
LFSHGFLYILGG	0.696 ± 0.017
SGFYQNTCSSLV	0.756 ± 0.12
WGTTLMYKAKKA	0.616 ± 0.024
SLVSWAGLLFWG	0.727 ± 0.058
DWGAGAASRADR	0.708 ± 0.015
GLFAPVGLGFGL	0.724 ± 0.012
GSRTHSMEDTTG	0.646 ± 0.0098
LLLARDLAHPLI	0.705 ± 0.015
DAAFRMTRLVVR	0.6172 ± 0.0015
SLFRGHLLPPRP	0.688 ± 0.036
GGGVRWGVGRGG	0.652 ± 0.025
PPPAPPPPPPPP	0.693 ± 0.068
GNSGAFTPSTQW	0.687 ± 0.055
AKSRQRKNGRTG	0.708 ± 0.026
VSVGLGRCSIFW	0.7217 ± 0.0048
FCRKVFFALRRF	0.612 ± 0.095
EFSWGGLAGSFG	0.68 ± 0.024
RSPSCSPSAVPL	0.738 ± 0.063
YVGLNHYCIDAL	0.723 ± 0.054
GGAGEAWGGLRW	0.767 ± 0.025
RSFFDRLNRSLS	0.666 ± 0.032
PPYDSSYGILLR	0.7666 ± 0.0053
CGPRPDSIDVGF	0.608 ± 0.052
LQASRHPASPST	0.701 ± 0.048
PGAPPPASPPST	0.714 ± 0.047

Sequence	protein stability index
NNIMKPKRKIIK	0.683 ± 0.031
GEECGRERLMCF	0.7291 ± 0.0055
PPPPASSFSPPR	0.7366 ± 0.0054
INRGGLVRGFGS	0.725 ± 0.17
ELRSVLDRDVRV	0.725 ± 0.049
PSTPLPHLTRPS	0.677 ± 0.07
EGGVGGRAPRVR	0.747 ± 0.098
PFSSPPPLSLPP	0.7308 ± 0.0011
APLRSSCVFLFP	0.744 ± 0.17
NTDSHIKIRKKI	0.7032 ± 0.0068
QGCSRHIRTGKK	0.5741 ± 0.0037
KEQYFKGSKKPI	0.651 ± 0.029
KKKLKRTIKKIA	0.481 ± 0.034
QTHFRPDYALDW	0.753 ± 0.064
PESRAESAKPRD	0.667 ± 0.019
NMPGALETKMGV	0.599 ± 0.054
ESGDKYKRRTQP	0.699 ± 0.052
PTPPLPYRPRSP	0.674 ± 0.014
VSRPRSLLVPNF	0.67 ± 0.07
ISVPPFPAPPPP	0.745 ± 0.13
WVLFWWRGRSGR	0.665 ± 0.042
PLLPLPPNPSPP	0.681 ± 0.022
LACCGGLVTWVL	0.6891 ± 0.0046
